Source: patent US20110045003A1 (SYNOVEX, published 2011)
Residue numbers refer to the chain shown, from its start. Names and notes keep the numbering of the source. Each block holds one binder with its values, some of them ahead of it.

Key:
[1] = target: T1, BSA coupled 37-mer Cad-11 peptide encompassing the Cad-11 immunogen (UniProt P55287 54-90, limits assumed, linked to BSA); assay: ELISA, BSA-coupled 37-mer cadherin peptide coated at 500 ng/ml, antibody titrated, A450
T1 construct: domain: 37-mer peptide encompassing the Cad-11 immunogen; also called Cad-11 antigen; Cad-11 peptide immunogen
T1 peptide (looked up): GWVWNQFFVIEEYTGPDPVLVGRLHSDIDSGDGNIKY
Method: Reactibind plates (ThermoScientific) were coated with 500 ng/ml of the BSA coupled cadherin 37-mer peptide (NE peptide) corresponding to Cadherins-7, -8, -9, -11, -18, -20, and -24 in 0.05% Tween (EMD, product code 9480) in PBS (pH 7.2) (Gibco(Invitrogen), #20012) at 100 μl volume/well for overnight at 4° C. The peptide containing solution was removed from the well and the plate blocked with a 2% bovine serum albumin (BSA) in PBS, 200 μl volume/well, for 2 h at 22° C. The plate was then washed twice with 200 μl/well of PBS-Tween 0.05% at 22° C. and blotted dry. A dilution series from 5 μg/ml to 8 ng/ml in a volume of 100 μl/well of each the humanized anti-Cad-11 antibodies were incubated in the peptide coated wells and incubated at 22° C. for 1 hr. Antibody solution was removed from the wells and the plate washed twice with 200 μl/well of 0.05% Tween-PBS at 22° C. and blotted dry. The goat-anti mouse IgG (Pierce # 31432) was added to each well to plate at a 1:1000 dilution, 100 μl/well and incubate at 22° C. for 30 min. The secondary antibody solution was removed and the plate washed twice with 200 μl/well of 0.05% Tween-PBS at 22° C. and blotted dry. The reaction was developed by adding 100 μl/well tetramethylbenzidine (TMB) reagent IgG (Pierce # 34022, 1 step Turbo TMB-ELISA) to plate and developed at 22° C. for 5 min.

[2] = target: T2, recombinant Cad-11 EC1 human IgG1 fusion protein (R&D Systems Cat. No. 1790-CA-050) (human, UniProt P55287 54-617, limits assumed); assay: competition ELISA on coated recombinant human Cad-11 EC1 fusion protein; competitor biotinylated SYN0012 at 0.1 µg/ml, streptavidin-HRP, OD450
T2 construct: Bought protein; the catalogue product may hold more of the extracellular region; also called recombinant human Cad-11 EC1; recombinant human Cad-11 fusion protein; not shown: human IgG1 part of the bought fusion protein
T2 sequence: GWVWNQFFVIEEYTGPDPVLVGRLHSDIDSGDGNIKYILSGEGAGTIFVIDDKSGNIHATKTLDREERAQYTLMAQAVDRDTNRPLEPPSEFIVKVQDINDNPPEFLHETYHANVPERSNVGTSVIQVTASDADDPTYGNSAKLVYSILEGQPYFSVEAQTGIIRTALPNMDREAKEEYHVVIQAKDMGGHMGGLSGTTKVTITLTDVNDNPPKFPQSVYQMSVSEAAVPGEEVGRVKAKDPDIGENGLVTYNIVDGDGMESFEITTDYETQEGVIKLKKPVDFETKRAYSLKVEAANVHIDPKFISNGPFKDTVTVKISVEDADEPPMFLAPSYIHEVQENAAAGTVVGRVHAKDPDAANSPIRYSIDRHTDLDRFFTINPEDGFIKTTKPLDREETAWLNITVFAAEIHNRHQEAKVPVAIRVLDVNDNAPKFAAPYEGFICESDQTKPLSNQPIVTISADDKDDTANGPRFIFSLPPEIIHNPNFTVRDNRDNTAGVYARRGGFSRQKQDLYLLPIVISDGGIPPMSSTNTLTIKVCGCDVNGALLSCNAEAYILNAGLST
Method: The binding of the purified humanized composite variant antibodies (SDP011 to SDP151) to a recombinant Cad-11 EC1 human IgG1 fusion protein was assessed in a competition binding ELISA. A dilution series from 5 μg/ml to 0.0022 μg/ml of the humanized or control (SYN0012/H1M1) antibodies was premixed with a constant concentration of biotinylated murine anti-Cad-11 antibody, SYN0012/H1M1 (0.1 μg/ml, final concentration), before incubating for 1 hour at room temperature on a Nunc Immuno MaxiSorp 96 well flat bottom microtitre plate (Fisher Cat. No. DIS-971-030J) pre-coated with 0.25 μg/ml recombinant human Cad-11 EC1 (R&D Systems Cat. No. 1790-CA-050) diluted in PBS. The binding of the biotinylated mAb was detected with streptavidin-HRP (Sigma Cat. No. 55512) and tetramethylbenzidine (TMB) substrate (Invitrogen Cat. No. 00-2023).

[3] = target: T3, Cad-7 EC1 domain peptide (region overlapping G1-G33 of Cad-11 EC1) (UniProt Q9ULB5 48-80, conjugated to biotin); assay: ELISA on biotinylated EC1 domain peptide captured on a Neutravidin plate, goat anti-mouse IgG, TMB, A450
T3 construct: domain: first 33 amino acids of the EC1 domain
T3 peptide (looked up): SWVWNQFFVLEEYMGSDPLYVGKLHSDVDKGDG
Method: (§1) The specificity of H1M1 and H14 anti-Cad-11 antibodies was tested further using an ELISA against the first 33 amino acids of the EC1 domains of Cad-11, Cad-7, Cad-8, Cad-20, Cad-24, Cad-9, Cad-18, and MN-Cad. Peptides corresponding to the region of Cad-7, Cad-8, Cad-20, Cad-24, Cad-9, Cad-18, MN-Cad that overlapped with the G1-G33 region of the Cad-11 EC1 domain were synthesized and conjugated to biotin. 100 μl of a 30 ng/ml solution of each of these peptides in PBS-Tween (0.05%) were incubated in each well of a 96-well Netravidin plate for 2-3 hrs at 4° C. and then washed twice with PBS-Tween (0.05%). Various concentrations of the anti-Cad-11 antibody were incubated in each well for 1 hr at 22° C. and then washed twice with PBS-Tween (0.05%). 100 μl of a 1/1000 dilution of a goat anti-mouse IgG secondary antibody were added to each well, incubated for 30 min at 22° C., and then washed twice with PBS-Tween (0.05%). 100 μl/well of room temperature TMB (3,3′,5,5′-tetramethylbenzidine) reagent was added to each well and color was allowed to develop for 5 min at 22° C.

[4] = target: T4, Cad-9 EC1 domain peptide (region overlapping G1-G33 of Cad-11 EC1) (UniProt Q9ULB4 54-86, conjugated to biotin); assay: as above
T4 construct: domain: first 33 amino acids of the EC1 domain
T4 peptide (looked up): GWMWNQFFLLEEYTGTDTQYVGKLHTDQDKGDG
Method: as §1

EC50 (read off the curve) [1]: ~0.04 µg/mL
IC50 (read off the curve) [2]: ~0.2 µg/mL
B1: humanized anti-Cad-11 EC1 antibody SDP051 (Vκ1/VH5) (antibody, IgG4, V domains shown)
VH: EVQLVQSGAEVKKPGASVKVSCKASGYSFTGYFMNWVRQAPGQGLEWIGRINPYTGDTFYNQKFKGRVTITVDKSTSTAYMELSSLRSEDTAVYYCGRLGSRYWYFDVWGQGTTVTVSS
VL: DVLMTQTPLSSPVTLGQPASISCRSSQSIIHSNGNTYLEWYLQKPGQSPQLLIYKVSNRFSGVPDRFTGSGSGTDFTLKISRVEAEDVGVYYCFQGSHVPWTFGQGTKLEIK
notes: humanized IgG4 (S241P), kappa

binding result [3]: no binding
binding result [4]: no binding
IC50 (read off the curve) [2]: ~0.2 µg/mL
B2: murine H1M1 monoclonal anti-Cad-11 EC1 antibody (hybridoma H1M1, ATCC PTA-9699) (antibody, V domains shown)
VH: EVQLQQSGPELVKPGASVKISCKASGYSFTGYFMNWVKQSHGKSLEWIGRINPYTGDTFYNQKFKGKATLTVDKSSSTAHMELLSLSSEDSAVYYCGRLGSRYWYFDVWGAGTTVTVSS
VL: B1 VL with S11L, T14S, Q17D, P18Q, Q50K, V88L, Q105G
modifications: Biotinylated when used as the labelled competitor in Example 14; the letters are unchanged.
notes: murine antibody raised against Peptide 4; also called SYN0012; SYN0012/H1M1
